Assay results reported in paper PMC6793842 (2019).

B1: P. reichenowi RH5 (ligand)
chain: MIRIKKKIILSILYIHLFILNSLSFENAKKKTKNQENNLTLLPIKSSEEEKSNIKHKDIGNVNKDDINNDIDNDKKDVKISNVKDHSTYIKSYLNKNVNDGLKYLFMPSHNAYIKKYSLFNKMNNDMLLNEKKDVNNNKEDDKNINHKNVNFLQNDFKGLPKNNIADSIDIVQDKEGHLDFIIIPYYSHVEYCKHLSIISVFHRLSTYGEYKDVIAFVKNINEKYDKVKDKCNEIKNDLITTIKKLENPHDVNNKNEDSNIYNTFEDIDDIYEDDMQDQLEYVYDTIEDADSDNTHPNKKKYHLINRTYKKMMDEYNLKKNKLIQCIKNNEPDFNNIYMDIKNYSTNRFENISCDNINFCNTNGIKNHYIYYIEKEMLAIKSKDLNKDIKDMTSILQQSELLLINLNKKMGSYIYIDTIKFIHKEMKYIFKRIEHHTNIIIDKIKIIDDKYKISINKTFPKNILLPKILDLSNEYALFITSSTLRQMLYNTFYTKEKHLHNLFHHLIYVLQIKFNDVPVHMEYFPLYKKKKILTQ
B2: gorilla basigin, entire ectodomain (receptor)
chain: ASGAAGTVLTTVEELGSKILLTCSLNDSATEVTGHRWLKGGVVLKEDALPGQKTEFEVDSDDQWGEYSCVFLPEPMGTANIQLHHGPPRVKAVKLSEHINEGETAVLACKSESVPPVTDWAWYKITDSGDKALTNGSESRFFVSSSQGRSELYIENLNMEADPGQYRCNGTSSKGSDQAVITLRVRSHLA
modifications: biotin (enzymatic monobiotinylation; site not stated)
B3: chimpanzee basigin, entire ectodomain (receptor)
chain: ASGAAGTVFTTVEDLGSKILLTCYMNDSATEVTGHRWLKGGVVLEEDALPGQKTEFKVDSDDQWGEYSCVFLPEPMGTANIQLHGPPRVKAVKSSEHINEGETAVLVCKSESVPPVTDWAWYKITDSGDKALMNGSESRFFVSSLQGRSELHIENLNMEADPGQYRCNGNSSEGSDQAVITLRVRSHLA
modifications: biotin (enzymatic monobiotinylation; site not stated)
B4: human basigin, entire ectodomain (receptor)
chain: EPGTVFTTVEDLGSKILLTCSLNDSATEVTGHRWLKGGVVLKEDALPGQKTEFKVDSDDQWGEYSCVFLPEPMGTANIQLHGPPRVKAVKSSEHINEGETAMLVCKSESVPPVTDWAWYKITDSEDKALMNGSESRFFVSSSQGRSELHIENLNMEADPGQYRCNGTSSKGSDQAIITLRVRSHLAAL
modifications: biotin (enzymatic monobiotinylation; site not stated)

Experiments:
Assay in all cases: SPR
[1] = molecular target: B3
[2] = molecular target: introgressed ancestral RH5 (reticulocyte-binding protein homologue 5) (calculated ancestor; parent sequence P. …, UniProt Q8IFM5 25-526, H200)
[3] = molecular target: P. adleri RH5 (P. adleri)
[4] = molecular target: P. praefalciparum RH5 (P. praefalciparum)
[5] = molecular target: P. billcollinsi RH5 (P. billcollinsi)
[6] = molecular target: P. gaboni RH5 (P. gaboni)

Binder: B1
- Kd [1]: 4.3 µM

Binder: B2
- Kd [2]: 3 µM
- Kd [3]: 1 µM
- Kd [4]: 2.5 µM

Binder: B3
- Kd [5]: 1.8 µM

Binder: B4
- Kd [6]: 3.6 µM
- Kd [3]: 3.1 µM
- Kd [4]: 1.9 µM
